T1: human PAC1 receptor (human, UniProt P41586 21-468)
T1 sequence: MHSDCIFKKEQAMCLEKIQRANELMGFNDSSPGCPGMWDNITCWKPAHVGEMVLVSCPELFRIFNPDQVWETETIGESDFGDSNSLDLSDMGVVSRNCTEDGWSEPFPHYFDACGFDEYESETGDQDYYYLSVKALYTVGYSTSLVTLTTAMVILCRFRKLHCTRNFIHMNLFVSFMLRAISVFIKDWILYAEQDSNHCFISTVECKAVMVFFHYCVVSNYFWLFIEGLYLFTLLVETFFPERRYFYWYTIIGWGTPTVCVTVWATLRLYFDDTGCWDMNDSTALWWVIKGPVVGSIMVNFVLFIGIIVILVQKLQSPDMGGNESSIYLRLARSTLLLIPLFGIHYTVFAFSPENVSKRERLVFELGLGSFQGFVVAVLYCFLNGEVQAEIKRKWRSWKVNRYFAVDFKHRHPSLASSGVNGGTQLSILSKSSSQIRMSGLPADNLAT


What was measured:
human CGRP receptor = human CGRP receptor (human, UniProt Q16602 23-461; O60894 27-148); experiment: cell-based or functional assay
Sequence of human CGRP receptor (Q16602 23-461 limits assumed, chain 1 of 2): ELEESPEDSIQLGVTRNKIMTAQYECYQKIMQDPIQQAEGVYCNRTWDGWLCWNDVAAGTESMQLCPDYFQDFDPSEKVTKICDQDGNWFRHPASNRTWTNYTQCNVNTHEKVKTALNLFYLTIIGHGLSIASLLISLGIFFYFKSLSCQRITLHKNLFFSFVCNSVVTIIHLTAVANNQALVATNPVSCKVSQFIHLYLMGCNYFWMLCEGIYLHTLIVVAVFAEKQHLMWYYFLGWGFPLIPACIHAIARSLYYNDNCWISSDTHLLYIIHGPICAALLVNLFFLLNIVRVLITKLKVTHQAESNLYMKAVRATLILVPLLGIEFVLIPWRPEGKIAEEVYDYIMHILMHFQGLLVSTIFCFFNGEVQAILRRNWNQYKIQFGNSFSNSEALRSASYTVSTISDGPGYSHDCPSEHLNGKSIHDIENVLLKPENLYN
Sequence of human CGRP receptor (O60894 27-148 limits assumed, chain 2 of 2): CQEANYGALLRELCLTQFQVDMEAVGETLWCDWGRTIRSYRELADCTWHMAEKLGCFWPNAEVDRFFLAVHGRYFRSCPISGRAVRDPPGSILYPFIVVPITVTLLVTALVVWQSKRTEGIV

human PAC1 receptor = target: T1, human PAC1 receptor; experiment: cell-based or functional assay
Further: test concentration or dose not given here.

| % inhibition of human CGRPR (human CGRP receptor) [%] | % inhibition of human PAC1 (human PAC1 receptor) [%] | Binder |
| --- | --- | --- |
| 83 | 10 | iPS:327875 (bispecific antibody, human IgG1, kappa, N297G) light 1: not shown heavy 1: not shown light 2: EIVLTQSPGTLSLSPGERATLSCRASQSVSSGYLTWYQQKPGQAPRLLIYGASSRATGIPDRFSGSGSGTDFTLTISRLEPEDFAVYYCQQYGNSLSRFGKGTKLEIKRTVAAPSVFIFPPSDEQLKSGTASVVCLLNNFYPREAKVQWKVDNALQSGNSQESVTEQDSKDSTYSLKSTLTLSKADYEKHKVYACEVTHQGLSSPVTKSFNRGEC heavy 2: QVQLVESGGGVVQPGRSLRLSCAASGFTFSSYGMHWVRQAPGKELEWVAVIWYDGSNKYYAESVKGRFIISRDKSKNTLYLQMNSLRAEDTAVYYCARAGGIAAAGLYYYYGMDVWGQGTTVTVSSASTKGPSVFPLAPSSKSTSGGTAALGCLVKDYFPEPVTVSWNSGALTSGVHTFPAVLQSSGLYSLESVVTVPSSSLGTQTYICNVNHKPSNTKVDKKVEPKSCDKTHTCPPCPAPELLGGPSVFLFPPKPKDTLMISRTPEVTCVVVDVSHEDPEVKFNWYVDGVEVHNAKTKPCEEQYGSTYRCVSVLTVLHQDWLNGKEYKCKVSNKALPAPIEKTISKAKGQPREPQVYTLPPSRKEMTKNQVSLTCLVKGFYPSDIAVEWESNGQPENNYKTTPPVLKSDGSFFLYSKLTVDKSRWQQGNVFSCSVMHEALHNHYTQKSLSLSPGK |
| 85 | 93 | iPS:327738 (bispecific antibody, human IgG1, kappa, lambda, N297G) light 1: EIVLTQSPATLSLSPGERATLSCRASQSVGRSLHWYQQKPGQAPRLLIKYASQSLSGIPARFSGSGSGTDFTLTISSLEPEDFAVYYCHQSSRLPFTFGEGTKVDIKRTVAAPSVFIFPPSDEQLKSGTASVVCLLNNFYPREAKVQWKVDNALQSGNSQESVTEQDSKDSTYSLESTLTLSKADYEKHKVYACEVTHQGLSSPVTKSFNRGEC heavy 1: not shown light 2: QSVLTQPPSVSAAPGQKVTISCSGSSSNIGNNYVSWYQQLPGTAPKLLIYDNNKRPSGIPDRFSGSKSGTSATLGITGLQTGDEADYYCGTWDSRLSAVVFGKGTKLTVLGQPKANPTVTLFPPSSEELQANKATLVCLISDFYPGAVTVAWKADGSPVKAGVETTKPSKQSNNKYAAKSYLSLTPEQWKSHRSYSCQVTHEGSTVEKTVAPTECS heavy 2: QVQLVESGGGVVQPGRSLRLSCAASGFTFSSFGMHWVRQAPGKELEWVAVISFDGSIKYSVDSVKGRFTISRDNSKNTLFLQMNSLRAEDTAVYYCARDRLNYYESSGYYHYKYYGMAVWGQGTTVTVSSASTKGPSVFPLAPSSKSTSGGTAALGCLVKDYFPEPVTVSWNSGALTSGVHTFPAVLQSSGLYSLESVVTVPSSSLGTQTYICNVNHKPSNTKVDKKVEPKSCDKTHTCPPCPAPELLGGPSVFLFPPKPKDTLMISRTPEVTCVVVDVSHEDPEVKFNWYVDGVEVHNAKTKPCEEQYGSTYRCVSVLTVLHQDWLNGKEYKCKVSNKALPAPIEKTISKAKGQPREPQVYTLPPSRKEMTKNQVSLTCLVKGFYPSDIAVEWESNGQPENNYKTTPPVLKSDGSFFLYSKLTVDKSRWQQGNVFSCSVMHEALHNHYTQKSLSLSPGK |
| 79 | 76 | iPS:327739 (bispecific antibody, human IgG1, kappa, lambda, N297G) light 1: not shown heavy 1: not shown light 2: QSVLTQPPSVSAAPGQKVTISCSGSSSNIGNNYVSWYQQLPGTAPKLLIYDNNKRPSGIPDRFSGSKSGTSATLGITGLQTGDEADYYCGTWDSRLSAVVFGGGTKLTVLGQPKANPTVTLFPPSSEELQANKATLVCLISDFYPGAVTVAWKADGSPVKAGVETTKPSKQSNNKYAAKSYLSLTPEQWKSHRSYSCQVTHEGSTVEKTVAPTECS heavy 2: QVQLVESGGGVVQPGRSLRLSCAASGFTFSSFGMHWVRQAPGKGLEWVAVISFDGSIKYSVDSVKGRFTISRDNSKNTLFLQMNSLRAEDTAVYYCARDRLNYYESSGYYHYKYYGMAVWGQGTTVTVSSASTKGPSVFPLAPSSKSTSGGTAALGCLVKDYFPEPVTVSWNSGALTSGVHTFPAVLQSSGLYSLESVVTVPSSSLGTQTYICNVNHKPSNTKVDKKVEPKSCDKTHTCPPCPAPELLGGPSVFLFPPKPKDTLMISRTPEVTCVVVDVSHEDPEVKFNWYVDGVEVHNAKTKPCEEQYGSTYRCVSVLTVLHQDWLNGKEYKCKVSNKALPAPIEKTISKAKGQPREPQVYTLPPSRKKMTKNQVSLTCLVKGFYPSDIAVEWESNGQPENNYKTTPPVLKSDGSFFLYSKLTVDKSRWQQGNVFSCSVMHEALHNHYTQKSLSLSPGK |
